From doi:10.1101/667956 (bioRxiv, 2019)
Where “and” joins values, the source holds several entries; their conditions need not be identical. Identical values can stand only once.

How the values were obtained:
cross-linking = target: the molecule itself; experiment: cross-linking
[1] = target: the molecule itself; experiment: single-molecule TIRF photobleaching
DLS = target: the molecule itself; experiment: DLS
SEC-MALS [2] = target: the molecule itself; experiment: SEC-MALS
SAXS = target: the molecule itself; experiment: SAXS
SEC-MALS [3] = target: the molecule itself; experiment: SEC-MALS; remark: listed apart in the source

B1: mTurquoise2-fused full-length Arc (1-396), wild type (natural protein)
chain: MELDHMTTGGLHAYPAPRGGPAAKPNVILQIGKCRAEMLEHVRRTHRHLLTEVSKQVERELKGLHRSVGKLENNLDGYVPTGDSQRWKKSIKACLCRCQETIANLERWVKREMHVWREVFYRLERWADRLESMGGKYPVGSEPARHTVSVGVGGPEPYCQEADGYDYTVSPYAITPPPAAGELPEQESVGAQQYQSWVPGEDGQPSPGVDTQIFEDPREFLSHLEEYLRQVGGSEEYWLSQIQNHMNGPAKKWWEFKQGSVKNWVEFKKEFLQYSEGTLSREAIQRELDLPQKQGEPLDQFLWRKRDLYQTLYVDAEEEEIIQYVVGTLQPKFKRFLRHPLPKTLEQLIQRGMEVQDGLEQAAEPSVTPLPTEDETEALTPALTSESVASDRTQPE
stoichiometry N (cross-linking): 2 and 3

B2: recombinantly purified rat Arc^s113-119A with an N-terminal SNAP tag and a C-terminal AviTag (natural protein)
chain: MELDHMTTGGLHAYPAPRGGPAAKPNVILQIGKCRAEMLEHVRRTHRHLLTEVSKQVERELKGLHRSVGKLENNLDGYVPTGDSQRWKKSIKACLCRCQETIANLERWVKREAAAAAAAFYRLERWADRLESMGGKYPVGSEPARHTVSVGVGGPEPYCQEADGYDYTVSPYAITPPPAAGELPEQESVGAQQYQSWVPGEDGQPSPGVDTQIFEDPREFLSHLEEYLRQVGGSEEYWLSQIQNHMNGPAKKWWEFKQGSVKNWVEFKKEFLQYSEGTLSREAIQRELDLPQKQGEPLDQFLWRKRDLYQTLYVDAEEEEIIQYVVGTLQPKFKRFLRHPLPKTLEQLIQRGMEVQDGLEQAAEPSVTPLPTEDETEALTPALTSESVASDRTQPE
modifications: AlexaFluor488 SNAP substrate on the SNAP tag; C-terminally biotinylated (AviTag)
binding result [1]: binds

B3: mTq2-fused full-length Arc^s92-98A (natural protein)
chain: MELDHMTTGGLHAYPAPRGGPAAKPNVILQIGKCRAEMLEHVRRTHRHLLTEVSKQVERELKGLHRSVGKLENNLDGYVPTGDSQRWKKSIAAAAAAAQETIANLERWVKREMHVWREVFYRLERWADRLESMGGKYPVGSEPARHTVSVGVGGPEPYCQEADGYDYTVSPYAITPPPAAGELPEQESVGAQQYQSWVPGEDGQPSPGVDTQIFEDPREFLSHLEEYLRQVGGSEEYWLSQIQNHMNGPAKKWWEFKQGSVKNWVEFKKEFLQYSEGTLSREAIQRELDLPQKQGEPLDQFLWRKRDLYQTLYVDAEEEEIIQYVVGTLQPKFKRFLRHPLPKTLEQLIQRGMEVQDGLEQAAEPSVTPLPTEDETEALTPALTSESVASDRTQPE
stoichiometry N (cross-linking): 2

B4: mTq2-fused full-length Arc^s113-119A (natural protein)
chain: MELDHMTTGGLHAYPAPRGGPAAKPNVILQIGKCRAEMLEHVRRTHRHLLTEVSKQVERELKGLHRSVGKLENNLDGYVPTGDSQRWKKSIKACLCRCQETIANLERWVKREAAAAAAAFYRLERWADRLESMGGKYPVGSEPARHTVSVGVGGPEPYCQEADGYDYTVSPYAITPPPAAGELPEQESVGAQQYQSWVPGEDGQPSPGVDTQIFEDPREFLSHLEEYLRQVGGSEEYWLSQIQNHMNGPAKKWWEFKQGSVKNWVEFKKEFLQYSEGTLSREAIQRELDLPQKQGEPLDQFLWRKRDLYQTLYVDAEEEEIIQYVVGTLQPKFKRFLRHPLPKTLEQLIQRGMEVQDGLEQAAEPSVTPLPTEDETEALTPALTSESVASDRTQPE
stoichiometry N (cross-linking): 2

B5: purified wild-type human Arc (untagged) (natural protein)
chain: MELDHRTSGGLHAYPGPRGGQVAKPNVILQIGKCRAEMLEHVRRTHRHLLAEVSKQVERELKGLHRSVGKLESNLDGYVPTSDSQRWKKSIKACLCRCQETIANLERWVKREMHVWREVFYRLERWADRLESTGGKYPVGSESARHTVSVGVGGPESYCHEADGYDYTVSPYAITPPPAAGELPGQEPAEAQQYQPWVPGEDGQPSPGVDTQIFEDPREFLSHLEEYLRQVGGSEEYWLSQIQNHMNGPAKKWWEFKQGSVKNWVEFKKEFLQYSEGTLSREAIQRELDLPQKQGEPLDQFLWRKRDLYQTLYVDADEEEIIQYVVGTLQPKLKRFLRHPLPKTLEQLIQRGMEVQDDLEQAAEPAGPHLPVEDEAETLTPAPNSESVASDRTQPE
stoichiometry N (DLS): 40 to 55 Arc molecules per capsid

B6: purified Arc^s113-119A (untagged) (natural protein)
chain: MELDHRTSGGLHAYPGPRGGQVAKPNVILQIGKCRAEMLEHVRRTHRHLLAEVSKQVERELKGLHRSVGKLESNLDGYVPTSDSQRWKKSIKACLCRCQETIANLERWVKREAAAAAAAFYRLERWADRLESTGGKYPVGSESARHTVSVGVGGPESYCHEADGYDYTVSPYAITPPPAAGELPGQEPAEAQQYQPWVPGEDGQPSPGVDTQIFEDPREFLSHLEEYLRQVGGSEEYWLSQIQNHMNGPAKKWWEFKQGSVKNWVEFKKEFLQYSEGTLSREAIQRELDLPQKQGEPLDQFLWRKRDLYQTLYVDADEEEIIQYVVGTLQPKLKRFLRHPLPKTLEQLIQRGMEVQDDLEQAAEPAGPHLPVEDEAETLTPAPNSESVASDRTQPE
stoichiometry N (SEC-MALS [2]): 2

B7: Arc^s113-119A with an N-terminal MBP fusion tag (natural protein)
chain: MELDHRTSGGLHAYPGPRGGQVAKPNVILQIGKCRAEMLEHVRRTHRHLLAEVSKQVERELKGLHRSVGKLESNLDGYVPTSDSQRWKKSIKACLCRCQETIANLERWVKREAAAAAAAFYRLERWADRLESTGGKYPVGSESARHTVSVGVGGPESYCHEADGYDYTVSPYAITPPPAAGELPGQEPAEAQQYQPWVPGEDGQPSPGVDTQIFEDPREFLSHLEEYLRQVGGSEEYWLSQIQNHMNGPAKKWWEFKQGSVKNWVEFKKEFLQYSEGTLSREAIQRELDLPQKQGEPLDQFLWRKRDLYQTLYVDADEEEIIQYVVGTLQPKLKRFLRHPLPKTLEQLIQRGMEVQDDLEQAAEPAGPHLPVEDEAETLTPAPNSESVASDRTQPE
stoichiometry N (SAXS): 2

B8: synthetic peptide of the Arc oligomerization region (residues 99-132) (peptide)
peptide: QETIANLERWVKREMHVWREVFYRLERWADRLES
stoichiometry N (SEC-MALS [3]): 6
